We go through five compounds from patent US12097241B2, “Methods of treating kidney failure, and/or improving or stablizing renal function using modified relaxin polypeptides” (BRISTOL-MYERS SQUIBB COMPANY, priority 2017, dated 2024).

This series is described as follows: In vivo pharmacokinetic (PK) studies in rats. Details: species or system Sprague-Dawley rats. As to conditions: for level at time molar at 24 h: read-out: Rat PK C24; for AUC(0-inf): read-out: Rat PK AUC Total. As for the experimental part: […] Blood samples were collected via jugular vein at different time points out to 72 hours. Blood samples were allowed to coagulate at room temperature (30-60 m) and then centrifuged (1500-2000) at 4° C. to obtain serum. After centrifugation serum samples were transferred to 96 well plates and stored at −80° C. until bioanalysis. Relaxin concentrations were measured from serum by ELISA.
Relaxin concentration-time profiles from individual animals were used for analysis. Pharmacokinetic parameters were calculated by non-compartmental methods using Phoenix WinNonlin (version 6.4) or Kinetica (version 5). Mean pharmacokinetic parameters Cmax, AUCinf, C24 and half-life were reported (Table 4). Table 4. In vivo PK data (abbreviations as in Table 3).

Setting [1] is: rats, SC dose 1.0 mg/kg, adjusted from 0.5 mpk.
Where [2] appears, read: rat, male Sprague-Dawley rats, single SC dose 1.0 mg/kg, serum ELISA.
[3] abbreviates: rats, SC dose 1.0 mg/kg, adjusted from 0.3 mpk.

Read-outs that look alike come from different tables or passages of the source.

As to `CC[C@H](C)[C@@H]1NC(=O)[C@H](C)NC(=O)[C@H]([C@@H](C)CC)NC(=O)[C@H](CCC(N)=O)NC(=O)[C@H](C)NC(=O)[C@H](CCCNC(=N)N)NC(=O)[C@H](C(C)C)NC(=O)[C@H](CC(C)C)NC(=O)[C@H](CCC(=O)O)NC(=O)[C@H](CCCNC(=N)N)NC(=O)CNC(=O)[C@@H](NC(=O)[C@H](CC(C)C)NC(=O)[C@H](CCCCN)NC(=O)[C@@H](NC(=O)[C@@H](NC(=O)[C@H](CCC(=O)O)NC(=O)[C@H](CCC(=O)O)NC(=O)[C@H](CCSC)NC(=O)[C@H](Cc2c[nH]c3ccccc23)NC(=O)[C@H](CO)NC(=O)[C@H](C)N)C(C)C)[C@@H](C)CC)CSSC[C@@H]2NC(=O)[C@@H](NC(=O)[C@H](CCCCN)NC(=O)[C@H](CC(N)=O)NC(=O)[C@H](C)NC(=O)[C@H](CC(C)C)NC(=O)[C@H](C)NC(=O)[C@H](CO)NC(=O)[C@H](Cc3ccc(O)cc3)NC(=O)[C@H](CC(C)C)NC(=O)[C@@H](N)Cc3ccc(C(C)=NOCCNC(=O)[C@H](CCC(=O)O)NC(=O)[C@H](CCC(=O)O)NC(=O)[C@H](CCC(=O)O)NC(=O)CNC(=O)CNC(=O)CNC(=O)CC[C@H](NC(=O)CCCCCCCCCCCCCC(=O)O)C(=O)O)cc3)CSSC[C@H](NC(=O)CNC(=O)[C@H](C(C)C)NC(=O)[C@H](Cc3c[nH]cn3)NC2=O)C(=O)N[C@@H]([C@@H](C)O)C(=O)N[C@@H](CCCCN)C(=O)N[C@@H](CCCNC(=N)N)C(=O)N[C@@H](CO)C(=O)N[C@@H](CC(C)C)C(=O)N[C@@H](C)C(=O)N[C@@H](CCCNC(=N)N)C(=O)N[C@@H](Cc2ccccc2)C(=O)N[C@H](C(=O)O)CSSC[C@@H](C(=O)NCC(=O)N[C@@H](CCSC)C(=O)N[C@@H](CO)C(=O)N[C@H](C(=O)N[C@@H](Cc2c[nH]c3ccccc23)C(=O)N[C@@H](CO)C(=O)O)[C@@H](C)O)NC1=O` [AQ1-EEEGGG-Glu^γ-C14-COOH], under setting [1], the “Rat PK AUC Total” value turned out to be 2.137 µM·h and the level at time molar at 24 h is 5.2 nM.
Take `CCCCCCCCCCCCCCCC(=O)N[C@@H](CCC(=O)NCC(=O)NCC(=O)NCC(=O)N[C@@H](CCC(=O)O)C(=O)N[C@@H](CCC(=O)O)C(=O)N[C@@H](CCC(=O)O)C(=O)NCCON=C(C)c1ccc(C[C@H](N)C(=O)N[C@@H](CC(C)C)C(=O)N[C@@H](Cc2ccc(O)cc2)C(=O)N[C@@H](CO)C(=O)N[C@@H](C)C(=O)N[C@@H](CC(C)C)C(=O)N[C@@H](C)C(=O)N[C@@H](CC(N)=O)C(=O)N[C@@H](CCCCN)C(=O)N[C@H]2CSSC[C@@H]3NC(=O)CNC(=O)[C@H](C(C)C)NC(=O)[C@H](Cc4c[nH]cn4)NC(=O)[C@H](CSSC[C@H](NC(=O)[C@H](CC(C)C)NC(=O)[C@H](CCCCN)NC(=O)[C@@H](NC(=O)[C@@H](NC(=O)[C@H](CCC(=O)O)NC(=O)[C@H](CCC(=O)O)NC(=O)[C@H](CCSC)NC(=O)[C@H](Cc4c[nH]c5ccccc45)NC(=O)[C@H](CO)NC(=O)[C@H](C)N)C(C)C)[C@@H](C)CC)C(=O)NCC(=O)N[C@@H](CCCNC(=N)N)C(=O)N[C@@H](CCC(=O)O)C(=O)N[C@@H](CC(C)C)C(=O)N[C@@H](C(C)C)C(=O)N[C@@H](CCCNC(=N)N)C(=O)N[C@@H](C)C(=O)N[C@@H](CCC(N)=O)C(=O)N[C@@H]([C@@H](C)CC)C(=O)N[C@@H](C)C(=O)N[C@@H]([C@@H](C)CC)C(=O)N[C@H](C(=O)NCC(=O)N[C@@H](CCSC)C(=O)N[C@@H](CO)C(=O)N[C@H](C(=O)N[C@@H](Cc4c[nH]c5ccccc45)C(=O)N[C@@H](CO)C(=O)O)[C@@H](C)O)CSSC[C@@H](C(=O)O)NC(=O)[C@H](Cc4ccccc4)NC(=O)[C@H](CCCNC(=N)N)NC(=O)[C@H](C)NC(=O)[C@H](CC(C)C)NC(=O)[C@H](CO)NC(=O)[C@H](CCCNC(=N)N)NC(=O)[C@H](CCCCN)NC(=O)[C@H]([C@@H](C)O)NC3=O)NC2=O)cc1)C(=O)O` [AQ1-EEEGGG-Glu^γ-C15-CH3]: under setting [2], the AUC(0-inf) turned out to be 0.37 µM·h and the level at time molar at 24 h came out at 0.89 nM.
The like results for `CC[C@H](C)[C@@H]1NC(=O)[C@H](C)NC(=O)[C@H]([C@@H](C)CC)NC(=O)[C@H](CCC(N)=O)NC(=O)[C@H](C)NC(=O)[C@H](CCCNC(=N)N)NC(=O)[C@H](C(C)C)NC(=O)[C@H](CC(C)C)NC(=O)[C@H](CCC(=O)O)NC(=O)[C@H](CCCNC(=N)N)NC(=O)CNC(=O)[C@@H](NC(=O)[C@H](CC(C)C)NC(=O)[C@H](CCCCN)NC(=O)[C@@H](NC(=O)[C@@H](NC(=O)[C@H](CCC(=O)O)NC(=O)[C@H](CCC(=O)O)NC(=O)[C@H](CCSC)NC(=O)[C@H](Cc2c[nH]c3ccccc23)NC(=O)[C@H](CO)NC(=O)[C@H](C)N)C(C)C)[C@@H](C)CC)CSSC[C@@H]2NC(=O)[C@@H](NC(=O)[C@H](CCCCN)NC(=O)[C@H](CC(N)=O)NC(=O)[C@H](C)NC(=O)[C@H](CC(C)C)NC(=O)[C@H](C)NC(=O)[C@H](CO)NC(=O)[C@H](Cc3ccc(O)cc3)NC(=O)[C@H](CC(C)C)NC(=O)[C@@H](N)Cc3ccc(C(C)=NOCCNC(=O)[C@H](CCCCN)NC(=O)[C@H](CO)NC(=O)CNC(=O)CNC(=O)[C@H](CO)NC(=O)CNC(=O)CNC(=O)CC[C@H](NC(=O)CCCCCCCCCCCCC(=O)O)C(=O)O)cc3)CSSC[C@H](NC(=O)CNC(=O)[C@H](C(C)C)NC(=O)[C@H](Cc3c[nH]cn3)NC2=O)C(=O)N[C@@H]([C@@H](C)O)C(=O)N[C@@H](CCCCN)C(=O)N[C@@H](CCCNC(=N)N)C(=O)N[C@@H](CO)C(=O)N[C@@H](CC(C)C)C(=O)N[C@@H](C)C(=O)N[C@@H](CCCNC(=N)N)C(=O)N[C@@H](Cc2ccccc2)C(=O)N[C@H](C(=O)O)CSSC[C@@H](C(=O)NCC(=O)N[C@@H](CCSC)C(=O)N[C@@H](CO)C(=O)N[C@H](C(=O)N[C@@H](Cc2c[nH]c3ccccc23)C(=O)N[C@@H](CO)C(=O)O)[C@@H](C)O)NC1=O` [AQ1-KSGGSGG-Glu^γ-C13-COOH] were, in that order, 0.814 µM·h and 0.73 nM.
Taken in the same sequence, the figures for `CC[C@H](C)[C@@H]1NC(=O)[C@H](C)NC(=O)[C@H]([C@@H](C)CC)NC(=O)[C@H](CCC(N)=O)NC(=O)[C@H](C)NC(=O)[C@H](CCCNC(=N)N)NC(=O)[C@H](C(C)C)NC(=O)[C@H](CC(C)C)NC(=O)[C@H](CCC(=O)O)NC(=O)[C@H](CCCNC(=N)N)NC(=O)CNC(=O)[C@@H](NC(=O)[C@H](CC(C)C)NC(=O)[C@H](CCCCN)NC(=O)[C@@H](NC(=O)[C@@H](NC(=O)[C@H](CCC(=O)O)NC(=O)[C@H](CCC(=O)O)NC(=O)[C@H](CCSC)NC(=O)[C@H](Cc2c[nH]c3ccccc23)NC(=O)[C@H](CO)NC(=O)[C@H](C)N)C(C)C)[C@@H](C)CC)CSSC[C@@H]2NC(=O)[C@@H](NC(=O)[C@H](CCCCN)NC(=O)[C@H](CC(N)=O)NC(=O)[C@H](C)NC(=O)[C@H](CC(C)C)NC(=O)[C@H](C)NC(=O)[C@H](CO)NC(=O)[C@H](Cc3ccc(O)cc3)NC(=O)[C@H](CC(C)C)NC(=O)[C@@H](N)Cc3ccc(C(C)=NOCCNC(=O)[C@H](CCCCN)NC(=O)[C@H](CCCCN)NC(=O)[C@H](CCCCN)NC(=O)[C@H](CCCCN)NC(=O)[C@H](CCCCN)NC(=O)[C@H](CCCCN)NC(=O)CC[C@H](NC(=O)CCCCCCCCCCCCC(=O)O)C(=O)O)cc3)CSSC[C@H](NC(=O)CNC(=O)[C@H](C(C)C)NC(=O)[C@H](Cc3c[nH]cn3)NC2=O)C(=O)N[C@@H]([C@@H](C)O)C(=O)N[C@@H](CCCCN)C(=O)N[C@@H](CCCNC(=N)N)C(=O)N[C@@H](CO)C(=O)N[C@@H](CC(C)C)C(=O)N[C@@H](C)C(=O)N[C@@H](CCCNC(=N)N)C(=O)N[C@@H](Cc2ccccc2)C(=O)N[C@H](C(=O)O)CSSC[C@@H](C(=O)NCC(=O)N[C@@H](CCSC)C(=O)N[C@@H](CO)C(=O)N[C@H](C(=O)N[C@@H](Cc2c[nH]c3ccccc23)C(=O)N[C@@H](CO)C(=O)O)[C@@H](C)O)NC1=O` [AQ1-KKKKKK-Glu^γ-C13-COOH] were 0.038 µM·h and 0.05 nM.
With `CC[C@H](C)[C@@H]1NC(=O)[C@H](C)NC(=O)[C@H]([C@@H](C)CC)NC(=O)[C@H](CCC(N)=O)NC(=O)[C@H](C)NC(=O)[C@H](CCCNC(=N)N)NC(=O)[C@H](C(C)C)NC(=O)[C@H](CC(C)C)NC(=O)[C@H](CCC(=O)O)NC(=O)[C@H](CCCNC(=N)N)NC(=O)CNC(=O)[C@@H](NC(=O)[C@H](CC(C)C)NC(=O)[C@H](CCCCN)NC(=O)[C@@H](NC(=O)[C@@H](NC(=O)[C@H](CCC(=O)O)NC(=O)[C@H](CCC(=O)O)NC(=O)[C@H](CCSC)NC(=O)[C@H](Cc2c[nH]c3ccccc23)NC(=O)[C@H](CO)NC(=O)[C@H](C)N)C(C)C)[C@@H](C)CC)CSSC[C@@H]2NC(=O)[C@@H](NC(=O)[C@H](CCCCN)NC(=O)[C@H](CC(N)=O)NC(=O)[C@H](C)NC(=O)[C@H](CC(C)C)NC(=O)[C@H](C)NC(=O)[C@H](CO)NC(=O)[C@H](Cc3ccc(O)cc3)NC(=O)[C@H](CC(C)C)NC(=O)[C@@H](N)Cc3ccc(C(C)=NOCCNC(=O)CNC(=O)CNC(=O)CNC(=O)CNC(=O)[C@H](CO)NC(=O)CC[C@H](NC(=O)CCCCCCCCCCCCCCC(=O)O)C(=O)O)cc3)CSSC[C@H](NC(=O)CNC(=O)[C@H](C(C)C)NC(=O)[C@H](Cc3c[nH]cn3)NC2=O)C(=O)N[C@@H]([C@@H](C)O)C(=O)N[C@@H](CCCCN)C(=O)N[C@@H](CCCNC(=N)N)C(=O)N[C@@H](CO)C(=O)N[C@@H](CC(C)C)C(=O)N[C@@H](C)C(=O)N[C@@H](CCCNC(=N)N)C(=O)N[C@@H](Cc2ccccc2)C(=O)N[C@H](C(=O)O)CSSC[C@@H](C(=O)NCC(=O)N[C@@H](CCSC)C(=O)N[C@@H](CO)C(=O)N[C@H](C(=O)N[C@@H](Cc2c[nH]c3ccccc23)C(=O)N[C@@H](CO)C(=O)O)[C@@H](C)O)NC1=O` [AQ1-GGGGS-Glu^γ-C15-COOH], under setting [3], the “Rat PK AUC Total” value stood at 5.526 µM·h and the level at time molar at 24 h worked out at 44 nM.
